These results are taken from publication PMC6222095.

The target of this experiment is T1, complement factor H, homozygous Tyr-402/Val-62 allotype (human), P08603.
T1 chain: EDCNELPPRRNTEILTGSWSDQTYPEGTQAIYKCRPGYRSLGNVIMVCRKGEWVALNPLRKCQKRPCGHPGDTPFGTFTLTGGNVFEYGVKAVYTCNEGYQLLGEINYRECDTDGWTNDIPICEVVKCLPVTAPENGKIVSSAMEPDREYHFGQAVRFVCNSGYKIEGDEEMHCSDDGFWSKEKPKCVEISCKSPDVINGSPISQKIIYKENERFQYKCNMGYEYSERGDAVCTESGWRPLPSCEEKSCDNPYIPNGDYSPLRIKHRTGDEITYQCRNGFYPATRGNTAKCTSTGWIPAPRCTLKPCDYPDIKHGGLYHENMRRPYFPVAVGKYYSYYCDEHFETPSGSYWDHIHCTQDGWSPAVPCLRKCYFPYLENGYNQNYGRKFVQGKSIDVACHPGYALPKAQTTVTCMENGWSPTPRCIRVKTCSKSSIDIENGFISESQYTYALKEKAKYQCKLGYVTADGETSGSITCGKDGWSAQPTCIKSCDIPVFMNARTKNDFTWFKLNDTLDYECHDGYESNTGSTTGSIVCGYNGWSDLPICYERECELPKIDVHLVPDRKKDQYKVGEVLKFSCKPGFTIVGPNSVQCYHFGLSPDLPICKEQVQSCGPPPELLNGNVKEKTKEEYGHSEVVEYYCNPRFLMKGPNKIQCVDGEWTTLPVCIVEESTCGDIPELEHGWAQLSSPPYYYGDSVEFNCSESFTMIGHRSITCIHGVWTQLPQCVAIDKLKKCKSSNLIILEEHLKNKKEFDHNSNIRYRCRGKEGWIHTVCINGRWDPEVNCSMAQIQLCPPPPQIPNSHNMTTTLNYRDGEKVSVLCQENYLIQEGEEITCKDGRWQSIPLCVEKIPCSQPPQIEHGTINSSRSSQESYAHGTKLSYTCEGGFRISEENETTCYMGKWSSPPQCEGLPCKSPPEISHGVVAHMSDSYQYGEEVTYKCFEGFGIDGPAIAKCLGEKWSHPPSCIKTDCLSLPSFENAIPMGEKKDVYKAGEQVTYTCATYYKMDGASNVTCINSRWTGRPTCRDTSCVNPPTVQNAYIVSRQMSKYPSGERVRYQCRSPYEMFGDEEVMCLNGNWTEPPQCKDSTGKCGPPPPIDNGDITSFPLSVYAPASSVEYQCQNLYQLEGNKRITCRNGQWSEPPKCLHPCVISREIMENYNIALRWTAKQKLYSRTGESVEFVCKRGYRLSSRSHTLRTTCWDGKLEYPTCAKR
The experiment can be described thus: SPR. The settings on record: natural protein, eight biantennary disialylated N-glycans, sites as printed: Asn-511, Asn-700, Asn-784, Asn-804, Asn-864, Asn-892, Asn-1011, Asn-1077, remark: other sources report otherwise.

One may read the Kd as the equilibrium constant for the complex coming apart. A lower Kd goes with a tighter complex.

B1: complement factor H, homozygous Tyr-402/Val-62 allotype, P08603 19-1231 (protein)
chain: T1 chain
With B1, the Kd is over 40 µM.
